The results in this text go back to publication PMC9860668.

The target of this assay is rabbit muscle F-actin (rabbit) (UniProt P68135). Nature of the assay: single-molecule force spectroscopy (scanning force microscopy); Imp-PM19 or ∆D3 mutant covalently bound through a PEG crosslinker to the SFM tip; F-actin_(rabbit) with unlabeled phalloidin immobilised on poly-l-lysine mica; F-buffer pH 6.8; set point 800 pN; retraction speed 2 µm/s; 1000 curves; WLC fit.

Substance “Imp-PM19-His (immunodominant membrane protein of 'Candidatus Phytoplasma mali' strain PM19, His-tagged) (natural protein)” had an interaction force of 40 to 400 pN, a maximal work of adhesion of 4.5 to 5 aJ, a most frequently observed adhesion of 80 to 90 pN and a rupture force of 100 pN.
